Here are results for nine molecules from US7423017B2, “Method for treating cartilage disorders” (Genentech, Inc., priority 1997, dated 2008).

For orientation: Kd means the free concentration of one partner at which half of the binding sites on the other are occupied at equilibrium, for simple one-to-one binding. In general, clearance refers to the volume of plasma or blood freed of the substance per unit of time. For orientation: IC50 means the midpoint of a concentration-inhibition curve.

Entries after “also recorded” stand apart in the source; their conditions may differ. Positions of bridges follow the written chain, without caps; N, C: chain ends. Residues, ends and D or L forms follow the SMILES beside them. No end group written: not given here. A value given as a limit tells only on which side of the number the result lay.

Data set [1] addresses T1, IGFBP-1 (Homo sapiens, UniProt P08833).
T1 sequence (P08833 26-259): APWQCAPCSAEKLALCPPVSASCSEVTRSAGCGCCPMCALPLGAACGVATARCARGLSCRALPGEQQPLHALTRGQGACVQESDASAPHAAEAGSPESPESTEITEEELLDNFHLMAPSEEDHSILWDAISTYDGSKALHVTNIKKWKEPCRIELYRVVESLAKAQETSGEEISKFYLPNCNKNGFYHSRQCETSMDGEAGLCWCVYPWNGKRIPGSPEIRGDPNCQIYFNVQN
Briefly: BIAcore competition assay: IGFBP-1 binding to IGF-I. Particulars: for Fold potency reduction IC50 (BP1-01) / IC50 (mut): locked-helix variants. Also noted: made in house; host or cells: CHO cells. The method, then:
Two series of synthetic peptide variants were generated to determine which side chains of the BP1-01 peptide might contribute directly to binding IGFBP-1. In the first series an alanine-scanning approach (Cunningham and Wells, Science, 244: 1081-1085 (1989)) was used to remove that portion of each side chain beyond the beta carbon. The contribution of these atoms to the free energy of binding of the peptide to IGFBP-1 was then assessed by measuring the potency (IC50) of the variant for inhibiting IGFBP-1 binding to IGF-I or IGF-II in a BIAcore™ competition assay, analogous to that described for IGFBP-3.
Peptides were assayed in a BIAcore™ assay as described in WO 98/45427, supra. These inhibition assays (FIG. 35) compared the relative potency of these peptides for blocking the interaction of IGFBP-1 with IGF-1.
The peptide BP1-625 fraction was lyophilized and resuspended in 100 mM HEPES buffer, pH 7.2.
(SPR reads the build-up and loss of mass on a sensor chip optically.)

Data set [2] deals with T1, IGFBP-1. Briefly: BIAcore direct binding kinetics of peptides on immobilized IGFBP-1. Also noted: made in house; host or cells: CHO cells. The settings on record: koff/kon, BIAcore kinetics; read-out: KD ± (SD or SE). The text has this: WO 98/45427 published Oct. 15, 1998 discloses the preparation and characterization of the IGFBP-1 displacer peptide BP1-01 ([…]) (SEQ ID NO:26). The kinetics of BP1-01 peptide variants were examined in a BIAcore™ (BIAcore, Inc., Piscataway, N.J.) assay using IGFBP-1 covalently coupled via EDC/NHS (as described by the manufacturer) to a dextran chip. […] The latter implies a half-life for peptide dissociation from IGFBP-1 of approximately 28 sec. The association rate constant is moderately fast, consistent with the notion that the peptide may not undergo significant conformation change upon binding to IGFBP-1.
Inhibition assays for measuring relative potencies of peptides for inhibiting IGFBP-1 binding to IGF-I have been described (e.g., WO 98/45427, supra). Peptides described herein were of sufficient binding affinity to allow for direct measurement of binding affinities by surface plasmon resonance (SPR) using a BIACORE™ system. The direct binding kinetics of IGFBP-1 peptides were measured by injecting a series of 2-fold diluted peptides in running buffer (0.05% TWEEN 20™ in PBS) over a carboxy-methyl (CM) biosensor chip coupled with about 590-1000 RU of IGFBP-1 at a flow rate of 50 μl/min on a BIACORE 2000™ or BIACORE 3000™ surface-plasmon-resonance instrument. The immobilization of IGFBP-1 was performed through EDC/NHS chemistry as described by the manufacturer. Peptides were also injected through a flow cell containing IGFBP-3 as background control. Since the off-rate for most of the peptides is relatively fast (in the range of 2×10^−2 s^−1), off-rate measurement was set for 30 minutes. This allowed for regeneration of IGFBP-1 on the chip by simple dissociation, rather than by addition of eluent. For each dilution of peptides, a global fit of the sensorgram data was performed using a 1:1 Langmuir binding model.

Data set [3] can be described thus: blood clearance, pharmacokinetics and tissue distribution of radiolabeled IGF-1 variants, IV in rats. In kind it is in vivo, rat.
Data set [4] relates to human articular cartilage explants. Briefly: human articular cartilage explants from diseased joints: matrix synthesis (35S-sulfate uptake). In kind it is cell-based. Particulars: 40 ng/ml. Here is the method: The metacarpophalangeal joint of a six-month old pig was cultured as described above for bovine articular cartilage in Example 8. This explant was cultured in media alone or in media with D12K, D12R, or wild-type IGF-1 (at 10 nM) alone or in the presence of IL-1α at 1 ng/ml, as described above. Human explants were from patients undergoing joint replacement surgery. Articular cartilage was harvested, aliquoted (40-45 mg/tube) and cultured as above. […] Fresh media was added on days 0, 1, 2, and 3. Matrix breakdown was determined by measuring the amount of proteoglycans in the media using the DMMB assay as set forth above. Matrix (proteoglycan) synthesis was determined by measuring ^35S-sulfate uptake as set forth above.
Human articular cartilage explants were cultured in media or treated with IGF-1 by itself or in combination with either BP3-40 or BP3-15 at 0.1 mg/ml as set forth above. Matrix breakdown was determined by measuring the release of proteoglycans into media as described above. Matrix synthesis was determined by counting the amount of ^35S-sulfate incorporated into the cartilage tissue as described above.
The same Material and Methods (for human tissue) were used as described above, using articular cartilage explants from human joints removed from patients undergoing joint replacement. These explants were cultured with IGF-1 alone at 40 ng/ml, or IGF-1 with BP1-17, BP3-15, or BP1-16 (0.1 mg/ml), or IGF-1 with buffer (HEPES).

The target in data set [5] is T2, IGFBP-3 (Homo sapiens, UniProt P17936).
T2 construct: made in house
T2 sequence (P17936 28-291): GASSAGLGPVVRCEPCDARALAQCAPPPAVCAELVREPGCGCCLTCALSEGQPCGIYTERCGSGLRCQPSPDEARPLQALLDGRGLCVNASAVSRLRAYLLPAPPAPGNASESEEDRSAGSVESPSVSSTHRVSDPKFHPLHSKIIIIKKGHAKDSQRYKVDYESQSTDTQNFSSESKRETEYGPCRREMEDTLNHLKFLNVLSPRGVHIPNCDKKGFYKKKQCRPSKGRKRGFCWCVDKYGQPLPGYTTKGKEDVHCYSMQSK
Briefly: BIACORE kinetics: IGFBP-3 binding to immobilized IGF-1 variants. Here is the method:
(§1) The binding affinities of the IGF variants for IGFBP-1 and IGFBP-3 were determined using a BIACORE™-2000 real time kinetic interaction analysis system (Biacore, Inc., Piscataway, N.J.) to measure association (ka) and dissociation (kd) rates. Carboxymethylated dextran biosensor chips (CM5, BIAcore Inc.) were activated with EDC (N-ethyl-N′-(3-dimethylaminopropyl)-carbodiimide hydrochloride) and NHS(N-hydroxysuccinimide) according to the supplier's instructions. For immobilization, IGF mutants in 20 mM sodium acetate, pH 4.8, were injected onto the biosensor chip at a concentration of 50 μg/ml to yield approximately 450-600 RU's (resonance-responce units) of covalently-coupled protein. Unreacted groups were blocked with an injection of 1 M ethanolamine. Kinetic measurements were carried out by injecting two-fold serial dilutions (starting at 1 μM) of either IGFBP-1 or IGFBP-3 in running buffer (PBS, 0.05% TWEEN 20™, 0.1% ovalbumin, 0.1% sodium azide) at 25 °C using a flow rate of 20 μl/min. Association rates (ka) and dissociation rates (kd) were calculated separately using a 1:1 Langmuir™ association model in the BIACORE™ evaluation software v. 3.0. The equilibrium dissociation constant (KD) was calculated as kd/ka.

Data set [6] deals with T2, IGFBP-3. Nature of the data set: competitive phage ELISA of IGF-1 mutants, IGFBP-3. In kind it is binding. Particulars: phage display, soluble IGFBP-3 competitor. In a few lines:
(§2)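 Alanine-scan IGF-1 mutants on phage competed with soluble IGFBP-1 or IGFBP-3 (threefold dilutions over six logs, from 5 μM and 500 nM respectively) for binding to plates coated with 1 μg/ml of the same protein in PBS pH 7.2. Incubation was 1 h at room temperature in 0.5% Tween 20/PBS. Bound phage was detected by anti-phage/HRP ELISA; IC50 is the mean±SD of at least two clones.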
A general note: An ELISA detects its analyte on a solid surface through an enzyme-linked reagent.

In data set [7] the target is T1, IGFBP-1. Briefly: BIACORE kinetics: IGFBP-1 binding to immobilized IGF-1 variants. Also noted: made in house; host or cells: CHO cells. Particulars: 25 C. Here is the method: as §1
(§3) For measurements of IGFBP-1 binding to IGF-1, kinetics experiments were conducted using a single-cysteine IGF-1 variant, Y31C, that was immobilized onto the sensor chip surface via a disulfide linkage (BIACORE™ System Manual Supplement, 5a-1, Pharmacia (1991)).

The test system of data set [8] is IGFBP-1. Described as above. Also noted: species or system human. Particulars: from relative KD values. Here is the method:
as §1, §3

Data set [9] concerns the target T1, IGFBP-1. Nature of the data set: competitive phage ELISA of IGF-1 mutants, IGFBP-1. In kind it is binding. Also noted: made in house; host or cells: CHO cells. Particulars: phage display, soluble IGFBP-1 competitor. In a few lines: as §2

Take “acRAGPLEWLAEKYEG (Ac-RAGPLEWLAEKYEG; bridge 6-13; not fully specified) [(i + 7)D]”: the “Fold potency reduction IC50 (BP1-01) / IC50 (mut)” value with IGFBP-1 [1] is 8.
Regarding “GQQSCAAGPLQWLCEHYFSTYGR (disulfide 5-14 (inferred)) [BP1-625]”, in the data set with IGFBP-1 [1] (9-10 nM IGFBP-1), the “improved potency over BP1-01” value is recorded as “about 20 fold”.
For `CC(C)C[C@@H]1NC(=O)[C@H](Cc2c[nH]c3ccccc23)NC(=O)[C@H](CCC(N)=O)NC(=O)[C@H](CC(C)C)NC(=O)[C@@H]2CCCN2C(=O)CNC(=O)[C@H](C)NC(=O)[C@H](CCCNC(=N)N)NC(=O)[C@@H](NC(=O)CNC(=O)[C@@H](NC(=O)[C@H](CCC(=O)O)NC(=O)[C@@H](N)CO)C(C)C)CSSC[C@@H](C(=O)N[C@@H](CCC(=O)O)C(=O)N[C@@H](CCCCN)C(=O)N[C@@H](Cc2ccc(O)cc2)C(=O)N[C@@H](Cc2ccccc2)C(=O)N[C@@H](CO)C(=O)N[C@H](C(=O)N[C@@H](Cc2ccc(O)cc2)C(N)=O)[C@@H](C)O)NC1=O` [BP1-21A] (H-SEVGCRAGPLQWLCEKYFSTY-NH2; disulfide 5-14; N-terminus assumed), the Kd on IGFBP-1 [2] was determined as 0.041 ± 0.017 µM. For the same molecule, the “IGF-I Inhibition IC50 (114)/IC50 (mut)” value on IGFBP-1 [1] (relative to BP1-14) is recorded as 3.
As for “F49A: IGF-1 variant wherein phenylalanine at position 49 is changed to alanine”, in data set [3] (radiolabeled, IV, rats), the “rate of clearance from blood” value is “cleared at a faster rate compared to wild-type human IGF-1”. The kidney tissue-to-blood ratio result in data set [3] (radiolabeled, IV, rats, 5, 15, 30 minutes) was “accumulate at statistically significant higher levels in the kidney compared to wild-type IGF-1; also recorded: accumulate at statistically significant higher ratios in the kidney compared to wild-type IGF-1”. The molecule also showed a clearance in [3] (single IV dose in rats) of 0.427 ± 0.125 L/h/kg. Moreover, the “matrix synthesis in diseased human articular cartilage” value in data set [4] is given as “stimulated matrix synthesis in diseased human articular cartilage”. In addition, in the data set with IGFBP-3 [5] (25 C), the “Binding to IGFBP-3 ka” value is reported as 2.7 ± 0.7 ×10^5 M^−1s^−1. In the data set with IGFBP-3 [5] (Table XV), the IGFBP-3 ka is 2.7 ± 0.7 ×10^5 M^−1 and the IGFBP-3 kd is listed as 17.1 ± 0.9 ×10^−4 s^−1. Moreover, the IC50 in the data set with IGFBP-3 [6] turned out to be 0.00272 ± 0.00111 µM. For the same molecule, the “Binding to IGFBP-1 ka” value in the data set with IGFBP-1 [7] is 1.26 ± 0.8 ×10^4 M^−1s^−1. For the same molecule, the “Specificity Relative BP-1 / Relative BP-3” value in the data set with IGFBP-1 [8] is recorded as 16.7. The IC50 with IGFBP-1 [9] is > 1 µM.
As for “acLEWLAEKYFE (Ac-LEWLAEKYFE; bridge 2-10) [(i + 8)A]”, the “Fold potency reduction IC50 (BP1-01) / IC50 (mut)” value in the data set with IGFBP-1 [1] was >200.
With `CC(C)C[C@@H]1NC(=O)[C@H](Cc2c[nH]c3ccccc23)NC(=O)[C@H](CCC(N)=O)NC(=O)[C@H](CC(C)C)NC(=O)[C@@H]2CCCN2C(=O)CNC(=O)[C@H](C)NC(=O)[C@H](CCCNC(=N)N)NC(=O)[C@@H](NC(=O)[C@@H](NC(=O)[C@H](CCCNC(=N)N)NC(=O)[C@H](C)NC(=O)[C@@H](N)CCC(=O)O)C(C)C)CSSC[C@@H](C(=O)N[C@@H](CCC(=O)O)C(=O)N[C@@H](CCCCN)C(=O)N[C@@H](Cc2ccc(O)cc2)C(=O)N[C@@H](Cc2ccccc2)C(N)=O)NC1=O` [BP1-20] (H-EARVCRAGPLQWLCEKYF-NH2; disulfide 5-14; N-terminus assumed), the Kd at IGFBP-1 [2] amounted to 0.033 ± 0.015 µM.
“acRPLEWLAEKYFE (Ac-RPLEWLAEKYFE; bridge 4-12) [(i + 8)B]”: the “Fold potency reduction IC50 (BP1-01) / IC50 (mut)” value with IGFBP-1 [1] was found to be 8.
For “acRAGPLEWLAEKYFE (Ac-RAGPLEWLAEKYFE; bridge 6-14; not fully specified) [(i + 8)C]”, the “Fold potency reduction IC50 (BP1-01) / IC50 (mut)” value in the data set with IGFBP-1 [1] is 6.
Take `CC(C)C[C@@H]1NC(=O)[C@H](Cc2c[nH]c3ccccc23)NC(=O)[C@H](CCC(N)=O)NC(=O)[C@H](CC(C)C)NC(=O)[C@@H]2CCCN2C(=O)CNC(=O)[C@H](C)NC(=O)[C@H](CCCNC(=N)N)NC(=O)[C@@H](N)CSSC[C@@H](C(=O)N[C@@H](CCC(=O)O)C(=O)N[C@@H](CCCCN)C(=O)N[C@@H](Cc2ccc(O)cc2)C(=O)N[C@@H](Cc2ccccc2)C(=O)NCC(N)=O)NC1=O` [BP1-01] (H-CRAGPLQWLCEKYFG-NH2; disulfide 1-10): the Fold potency reduction IC50 (BP1-01) / IC50 (mut) on IGFBP-1 [1] stood at 1.
